Data from the DeepSol protein solubility set.

assay: soluble on expression in E. coli; label from the status in PepcDB or PDB records

| Sequence | soluble on expression in E. coli |
| --- | --- |
| MSLTYLNHILVIEDDLDAAESLSDMLSIDGFQITTTASVQDAMELLESQRFGVILTDRHLPDGLIEHRLQEILEVSSKTPVIVVTGYSDLQAVILAFRQGISDYVIKPIIPEDLIQTVRRILERRVLEQHLQIEHAFAERIQSTAEAIILVIDFDGRVIHFNRFFTELTGWAQGDLIGENWFDRCIYPEDRDRLINVCDTMSRTDRYRGCTNRIRCKNGEAREIRWSNSKWSEADGGQQFILAIGIDVSDLAEATQRAVRAERLAAIGETVAALAHESRNAIQRINAASEVLAINIRGNVDSEEELSVVQRAASDLSTLLESVRAFAAPIQAKLECADLREIWRRSWDDLECKRSGRDVELVENATSCLHDVKVDVCRMEQLFRNLFLNALEASEGPVRIEIDCECNDEMVCLKVTDDGPGLTAEQSAHLFEPFYTTKPTGTGLGMPICQRIVEAHGGTIAAGNHLNGTEVAICVPRVKAAVLVSEGHHHHHH | soluble |
| MSLVAVRSAHINKAGEFDPEKWIASLGITSQKSCECLAETWAYCLQQTQGHPDASLLLWRGVEMVEILSTLSMDIDTLRAALLFPLADANVVSEDVLRESVGKSVVNLIHGVRDMAAIRQLKATHTDSVSSEQVDNVRRMLLAMVDDFRCVVIKLAERIAHLREVKDAPEDERVLAAKECTNIYAPLANRLGIGQLKWELEDYCFRYLHPTEYKRIAKLLHERRLDREHYIEEFVGHLRAEMKAEGVKAEVYGRPKHIYSIWRKMQKKNLAFDELFDVRAVRIVAERLQDCYAALGIVHTHYRHLPDEKDDYVANPKPNGYQSIHTVVLGPGGKTVEIQIRTKQMHEDAELGVAAHWKYKEGAAAGGARSGHEDRIAWLRKLIAWQEEMADSGEMLDEVRSQVFDDRVYVFTPKGDVVDLPAGSTPLDFAYHIHSDVGHRCIGAKIGGRIVPFTYQLQMGDQIEIITQKQPNPSRDWLNPNLGYVTTSRGRSKIHAWFRKQDRDKNILAGRQILDDELEHLGISLKEAEKHLLPRYNFNDVDELLAAIGGGDIRLNQMVNFLQSQFNKPSAEEQDAAALKQLQQKSYTPQNRSKDNGRVVVEGVGNLMHHIARCCQPIPGDEIVGFITQGRGISVHRADCEQLAELRSHAPERIVDAVWGESYSAGYSLVVRVVANDRSGLLRDITTILANEKVNVLGVASRSDTKQQLATIDMTIEIYNLQVLGRVLGKLNQVPDVIDARRLHGSEGHHHHHH | not soluble |
| MSLVGDVYLGVGSASSEYWAAYIEGAKAVASSLGKDVNVIPSEFDGQKLLEQFGAVFAAGCEDCVVTVDPASNAFTKAMIERADTAGAKYVNLWNRPDEIHPWDTVPNTWIANISFDGVDSGYQNGMALCNALGGKGNIVALNGIPDNPPAKQRIAGLHKALQECPGLKLLDTQVGNWDQTQGQSITRAWLAKYGDELNGIFSANDGMALGAVAALREKGLVGKILVTGSDGSSDVIKLIEKGEMLSTMHIDGYVQGAYAVALAAAAVKGDIKMDELKQDQRDFFLSQTLVTKDNAASVLNSKKDASQFSYDALKGNFWAASVGQIPAGANEGHHHHHH | soluble |
| MSLVIGYMESNKNNSKWKDILMDGEILQIENIFNGSHNKKNNGLIIFKIKDKLGNVNKLTFVSKSADMSIQVEKAERLIKKGSYYRHFKGNYYKVLYIAENSEDKEKVVVYQAMYGEKKVYVRPFKMFISKVDHCKYPEIEQEYRFMSISELENQFGTSVVASWNMQNIYVDHTIEGHHHHHH | not soluble |
| MSLVPARVFSCTILVDFQTEDQDTMCNLLRVQWTITPRTAPQPWLACNGCGDLRAFQASDKIRLNANGRKLDAWLIYRCLICDKSWNRPIFERQNVCDISPPVLEALQCNDPQWIRAETFNLEALRRKSQRIDEFPDFDIEKRIRDEPTDWAAAEIDLTVPFPASIRLDRLLASELGLSRSMLQKLHDGGQIRAQSDLLRRRLRNGTRIVIECGDGLDRERFWKPAVRGLEGHHHHHH | not soluble |
| MSLVQWISPLDNSIVIASKVKILRNIKGIKFTKLLNEEEFNDLLSMVLGRLKEIDILDKCYVVKLKDGEEKIIDYYKENFGLIKYFENKDNLIFIMNKNGEFNILLNEEEHIGIECTNSGLSLREVYSKVDNLDDLIEEKIHYSFDSELGYLTSNIKNLGTALRAKVFIHLPLLSSNNLIRIIKNALKEEGITLKSIYNSGNKDVGNIYEVSNIKTLGMSEKDILDSLISITNKLILREKNQRDNLSKDEYIELKDDILRSLGVLRNTYSIDREGHHHHHH | not soluble |
